# Measurements as given in US20150344570A1 (published 2015).
# T1: FcγRIIa H (human, UniProt P12318 34-217)
# T1 construct: extracellular domain; also called FcgRIIa H; 2aH; not shown: His tag attached to the C terminus
# T1 sequence (looked up): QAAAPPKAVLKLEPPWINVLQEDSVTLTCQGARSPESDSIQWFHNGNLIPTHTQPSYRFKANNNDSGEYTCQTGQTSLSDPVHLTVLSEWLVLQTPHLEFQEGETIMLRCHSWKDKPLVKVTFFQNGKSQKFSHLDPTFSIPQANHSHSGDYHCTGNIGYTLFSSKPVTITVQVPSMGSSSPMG
# T2: FcγRIIb (human, UniProt P31994 43-217)
# T2 construct: extracellular domain; also called FcgRIIb; 2b; not shown: His tag attached to the C terminus
# T2 sequence (looked up): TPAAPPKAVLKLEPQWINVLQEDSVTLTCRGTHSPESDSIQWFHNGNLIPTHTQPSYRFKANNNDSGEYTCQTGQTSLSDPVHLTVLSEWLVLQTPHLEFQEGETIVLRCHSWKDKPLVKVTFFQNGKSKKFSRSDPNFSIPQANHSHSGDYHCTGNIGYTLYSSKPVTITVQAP
# T3: FcγRIIa H (human, UniProt P12318 34-217)
# T3 construct: extracellular domain; also called FcgRIIa H; FcγRIIa type H
# T3 sequence (looked up): T1 sequence (looked up)
# T4: FcγRIIb (human, UniProt P31994 43-217)
# T4 construct: extracellular domain; also called FcgRIIb; 2b
# T4 sequence (looked up): T2 sequence (looked up)
# B1: GpH7-A5/GpH7-B3 variant G236_20W/GpL16-k0 (antibody, human IgG1, kappa)
# heavy 1: not shown
# heavy 2: not shown
# light: DIVMTQSPLSLPVTPGEPASISCQASESLVHSNRNTYLHWYLQKPGQSPQLLIYKVSNRFSGVPDRFSGSGSGTDFTLKISRVEAEDVGVYYCSQNTHVPPTFGQGTKVEIERTVAAPSVFIFPPSDEQLKSGTASVVCLLNNFYPREAKVQWKVDNALQSGNSQESVTEQDSKDSTYSLSSTLTLSKADYEKHKVYACEVTHQGLSSPVTKSFNRGEC
# notes: Heterodimerized anti-glypican-3 IgG1; mutation in one H chain only; also called He Ab; GpH7-A5/GpH7-B3-03-20W/GpL16-k0
# B2: GpH7-A5/GpH7-B3 variant D265_07I/GpL16-k0 (antibody, human IgG1, kappa)
# heavy 1: not shown
# heavy 2: not shown
# light: B1 light
# notes: Heterodimerized anti-glypican-3 IgG1; mutation in one H chain only; also called He Ab
# B3: GpH7-A5/GpH7-B3 variant D265_18N/GpL16-k0 (antibody, human IgG1, kappa)
# heavy 1: not shown
# heavy 2: not shown
# light: B1 light
# notes: as for B2
# B4: GpH7-A5/GpH7-B3 variant S239_16H/GpL16-k0 (antibody, human IgG1, kappa)
# heavy 1: not shown
# heavy 2: not shown
# light: B1 light
# notes: as for B2
# B5: GpH7-A5/GpH7-B3 variant D265_13S/GpL16-k0 (antibody, human IgG1, kappa)
# heavy 1: not shown
# heavy 2: not shown
# light: B1 light
# notes: as for B2
# B6: GpH7-A5/GpH7-B3 variant D265_19Q/GpL16-k0 (antibody, human IgG1, kappa)
# heavy 1: not shown
# heavy 2: not shown
# light: B1 light
# notes: as for B2
# B7: GpH7-A5/GpH7-B3 variant S239_12R/GpL16-k0 (antibody, human IgG1, kappa)
# heavy 1: not shown
# heavy 2: not shown
# light: B1 light
# notes: as for B2
# B8: GpH7-A5/GpH7-B3 variant G236_19Q/GpL16-k0 (antibody, human IgG1, kappa)
# heavy 1: not shown
# heavy 2: not shown
# light: B1 light
# notes: as for B2
# B9: GpH7-A5/GpH7-B3 variant D265_03V/GpL16-k0 (antibody, human IgG1, kappa)
# heavy 1: not shown
# heavy 2: not shown
# light: B1 light
# notes: as for B2
# B10: GpH7-A5/GpH7-B3 variant G237_02A/GpL16-k0 (antibody, human IgG1, kappa)
# heavy 1: not shown
# heavy 2: not shown
# light: B1 light
# notes: Heterodimerized antibody, alteration in one H chain only; also called He Ab G237A
# B11: GpH7-A5/GpH7-B3 variant G237_06M/GpL16-k0 (antibody, human IgG1, kappa)
# heavy 1: not shown
# heavy 2: not shown
# light: B1 light
# notes: Heterodimerized antibody, alteration in one H chain only; also called He Ab G237M
# B12: GpH7-A5/GpH7-B3 variant G237_04F/GpL16-k0 (antibody, human IgG1, kappa)
# heavy 1: not shown
# heavy 2: not shown
# light: B1 light
# notes: Heterodimerized antibody, alteration in one H chain only; also called He Ab G237F
# B13: GpH7-A5/GpH7-B3 variant G237_03V/GpL16-k0 (antibody, human IgG1, kappa)
# heavy 1: not shown
# heavy 2: not shown
# light: B1 light
# notes: Heterodimerized antibody, alteration in one H chain only; also called He Ab G237V
# B14: GpH7-A5/GpH7-B3 variant G236_09D/GpL16-k0 (antibody, human IgG1, kappa)
# heavy 1: not shown
# heavy 2: not shown
# light: B1 light
# notes: Heterodimerized antibody, alteration in one H chain only; also called He Ab G236D
# B15: GpH7-A5/GpH7-B3 variant G237_12R/GpL16-k0 (antibody, human IgG1, kappa)
# heavy 1: not shown
# heavy 2: not shown
# light: B1 light
# notes: Heterodimerized antibody, alteration in one H chain only; also called He Ab G237R
# B16: GpH7-A5/GpH7-B3 variant G237_08L/GpL16-k0 (antibody, human IgG1, kappa)
# heavy 1: not shown
# heavy 2: not shown
# light: B1 light
# notes: Heterodimerized antibody, alteration in one H chain only; also called He Ab G237L
# Biological target: T1, FcγRIIa H
# Assay: SPR (Biacore), antibody captured on antigen peptide chip, FcγR as analyte; relative binding activity
# Description: (§1) The heterodimerized antibodies He Abs in which one of the H chains was introduced with an alteration were assayed for their binding activities to each activating FcγR and inhibitory FcγR according to the method described in Example 4. […] The activating FcγRs in FIGS. 26, 27, 28, and 29 are FcγRIa, FcγRIIa (R), FcγRIIa (H), and FcγRIIIa, respectively.
# (§2) Analysis of interaction between objective antibody and the FcγR was carried out using Biacore T100 (GE Healthcare). HBS-EP+ (GE Healthcare) was used as the running buffer, and the measurement temperature was set to 25° C. Chips produced by immobilizing the antigen peptide by the amine coupling method to a Series S Sencor Chip CM5 (GE Healthcare), or alternatively, chips produced by allowing preliminarily biotinylated antigen peptides to interact with and immobilize onto a Series S Sensor Chip SA (certified) (GE Healthcare) were used. Antibodies of interest were captured onto an antigen peptide-immobilized chip, and allowed to interact to each FcγR diluted with running buffer. To regenerate and repeatedly use the chip, the antibodies captured on the chip were washed off by reacting 10 mM glycine-HCl, pH 1.5.
row,He/Con_2aH,Binder
1,147 % of GpH7-A5/GpH7-B3/GpL16-k0 (=100),B1
2,3.1 % of GpH7-A5/GpH7-B3/GpL16-k0 (=100),B2
3,12.4 % of GpH7-A5/GpH7-B3/GpL16-k0 (=100),B3
4,59.4 % of GpH7-A5/GpH7-B3/GpL16-k0 (=100),B4
5,19.8 % of GpH7-A5/GpH7-B3/GpL16-k0 (=100),B5
6,47.7 % of GpH7-A5/GpH7-B3/GpL16-k0 (=100),B6
7,57.1 % of GpH7-A5/GpH7-B3/GpL16-k0 (=100),B7
8,89.1 % of GpH7-A5/GpH7-B3/GpL16-k0 (=100),B8
9,4.6 % of GpH7-A5/GpH7-B3/GpL16-k0 (=100),B9

# Biological target: T2, FcγRIIb
# Assay: as above
# Description: as §1, §2
row,He/Con_2b,Binder
1,58.2 % of GpH7-A5/GpH7-B3/GpL16-k0 (=100),B1
2,1.3 % of GpH7-A5/GpH7-B3/GpL16-k0 (=100),B2
3,6.1 % of GpH7-A5/GpH7-B3/GpL16-k0 (=100),B3
4,49.4 % of GpH7-A5/GpH7-B3/GpL16-k0 (=100),B4
5,11.3 % of GpH7-A5/GpH7-B3/GpL16-k0 (=100),B5
6,33.4 % of GpH7-A5/GpH7-B3/GpL16-k0 (=100),B6
7,39.1 % of GpH7-A5/GpH7-B3/GpL16-k0 (=100),B7
8,46.6 % of GpH7-A5/GpH7-B3/GpL16-k0 (=100),B8
9,3.2 % of GpH7-A5/GpH7-B3/GpL16-k0 (=100),B9

# Biological target: T3, FcγRIIa H
# Assay: SPR (Biacore), antibody captured, FcγR analyte; binding relative to GpH7-A5/GpH7-B3/GpL16-k0 = 100
row,He/Con_2aH,Binder
1,34 % of control,B10
2,17.8 % of control,B11
3,41.4 % of control,B12
4,39.4 % of control,B13
5,89.8 % of control,B14
6,7.5 % of control,B15
7,13.9 % of control,B16

# Biological target: T4, FcγRIIb
# Assay: as above
row,He/Con_2b,Binder
1,124 % of control,B10
2,130 % of control,B11
3,149 % of control,B12
4,61.4 % of control,B13
5,167 % of control,B14
6,148 % of control,B16

# Biological target: T1, FcγRIIa H
# Assay: SPR; He/Con for FcγRIIa H divided by He/Con for FcγRIIb
row,He_2aH/2b (IIaH/IIb) [ratio],Binder
1,2.52,B1
2,2.35,B2
3,2.01,B3
4,1.2,B4
5,1.75,B5
6,1.43,B6
7,1.46,B7
8,1.91,B8
9,1.42,B9

# Biological target: T3, FcγRIIa H
# Assay: SPR (Biacore); He/Con_2aH divided by He/Con_2b (FcγRIIa H over FcγRIIb)
row,He_2aH/2b (IIaH/IIb) [ratio],Binder
1,0.27,B10
2,0.14,B11
3,0.28,B12
4,0.64,B13
5,0.54,B14
6,0.76,B15
7,0.09,B16
